According to patent publication US5662885A, “Peptide derived radionuclide chelators” (Resolution Pharmaceuticals Inc., priority 1994, dated 1997):
Starred links: 1 amine or outer side, 2 acyl side, 3 side chain; linkers in the order of their positions; H or OH if unused. Non-standard residues stand in square brackets, D forms with d. No end group written: not given here. *: point of attachment. Cys(Acm) = CC(=O)NCSC[C@H](N[*:1])C(=O)[*:2]; Me2Gly = CN(C)CC(=O)*

Legend:
[1] = system: zymosan-induced focal inflammation in left hindleg of rats; assay: Rat inflammation study: in vivo imaging and biodistribution of Tc-99m labeled conjugates; conditions: i.v. tail vein, 30 minutes, average of two rats; for Inflam:Uninfl (target to background ratio, inflamed:uninflamed muscle): zymosan-inflamed left leg vs right leg muscle
Method: (§1) Rat inflammation studies were performed as follows. 2 male Wistar rats (Charles River, 200-250 g) were injected intramuscularly with (25 mg) zymosan, a yeast cell wall suspension, into their left hindlegs 24 hours before imaging. Focal inflammation in the leg was visually detectable after 1 day.
(§2) The rats were anaesthetized with somnitol (40 to 50 mg/kg), and the labeled conjugate solution (200 μL) was injected intravenously via the tail vein. Serial whole-body scintigrams were acquired at 30 minutes. The rats were then killed with anaesthesia overdose and samples of organs, urine, blood, inflamed muscle (left leg) and non-inflamed muscle (right leg) and inflammatory exudate (fluid) were weighed and counted in either a well-type gamma counter or in a gamma dose calibrator depending upon the organ. The dose calculations were made based on the assumption that the blood volume constituted 8% of body weight. The results of the conjugates represented in the table below are averages for two rats and are corrected for the residual dose in the tail.

[2] = system: zymosan-induced focal inflammation in left hindleg of rats; conditions: rat, in vivo, iv
Method: as §1, §2

| Substance | Fluid:Blood (inflammatory exudate:blood) [1] | Inflam:Uninfl (target to background ratio, inflamed:uninflamed muscle) [1] | GI Tract (% dose) [2] | Liver (% dose) [2] | Urine (% dose) [2] |
| --- | --- | --- | --- | --- | --- |
| N,N-dimethylGly-Ser-Cys(Acm)-Gly-Thr-Lys-Pro-Pro-Arg-OH ([Me2Gly]S[Cys(Acm)]GTKPPR-OH; also: 99mTc label via N,N-dimethylGly-Ser-Cys(Acm) chelator) [N,N-dimethylGly-Ser-Cys(Acm)-GTKPPR-OH] | 1.9 | 5.3 | 2.8 % dose | 2.4 % dose | 63.5 % dose |
| N,N-dimethylGly-Thr-Cys(Acm)-Gly-Thr-Lys-Pro-Pro-Arg ([Me2Gly]T[Cys(Acm)]GTKPPR; also: 99mTc label via N,N-dimethylGly/Cys(Acm) chelator) [N,N-dimethylGly-Thr-Cys(Acm)-GTKPPR-OH] | 1.6 | 4.6 | 2.5 % dose | 2.4 % dose | 68.5 % dose |
